test: yeast display, Sf9 membrane polyspecificity reagent, FACS + sequencing; frameworks hold sequencing errors
In short: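 Nanobodies came from a synthetic yeast display library in Saccharomyces cerevisiae BJ5465, induced with galactose for 36–48 hours and stained for 1 hour at 4 °C with 10% biotinylated, detergent-solubilized Sf9 membrane reagent. Cells were enriched on streptavidin microbeads and then FACS-sorted, with low and high (top ~1%) gates set on anti-HA fluorescence for expression and streptavidin fluorescence for reagent binding. Each polyreactivity label reflects the gate a clone came from. Genes were amplified by colony PCR, sequenced by MiSeq 2 × 250 and filtered by CDR length.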

Sequence	polyreactivity (PSR sort gate)
QVQLVESGGGLVQAGGSLRLSCAASGSIFVSNAMGWYRQAPGKEREMVAAISQSGGSTYYADSVKGLFTISRDNAKNTVYLQMNSLKPEDTEVYYCATPIRSGFRIYEYWGQGTQVTVSS	low polyreactivity
QVQLVESGGGLVQAGGSLRLSCAASGITFWRYAMGWYRQAPGKERELVAAIDWSGGDTYYADSVKGRFTISRDNAKNTVYLQMNRLKPEDTAVYYCATDRYAYKLYDYWGQGTQVTVSS	low polyreactivity
QVQLVESGGGLVQAGGSLRLSCGASGGTFVSNAMGWYRQAPGKERELVAAITSGCNTTYADSVKGRFTISRDNAKNTVYLQMNSLKPEDTAVYYCATDFEGSWIDARGTWYYVWFGYWGQGTQVTVSS	low polyreactivity
QVQLVESGGGSDQAGGSLRLSCAASGSTFQYNVMGWYRQAPRKERELVAAIRQSGSTTYYADSVKGRFTISRDNAKNTVYLQMNSLKPEDTAVYYCAKRYHNWANSRMDYWGQGTQVTVSS	low polyreactivity
QVQLVESGGGLVQAGGSLRLSCAASGRTFYLYARGWYRQAPGKERELVAAITRSGGSTYYADSVKGRFTISRDNAKNTVYLQMNSLKPEDTAVYYCAAYSYYGAGDRAYDYWGQGTQVTVSS	high polyreactivity
QVQLVESGGGLVQAGGSLRLSCAASGSTFWSYTMGWYRQAPGKERELVAAISRSGGSTYYADSVKGRFTISRDNAKNTVYLQMNSLKPEDTAVYYCAADDRYGSRYYYWGQGTQVTVSS	high polyreactivity
QVQLVESGGGLVQAGGSLRLSCAASGNTFHSNAMGWYRQAPGKERELVAAITPSDGDTYYADSVKGRFTISRDNAKNTVYLQMNSLKPEDTSVYYCAAEDDPGEYEYWGQGTQVTVSS	low polyreactivity
QVQLVESGGGLVQAGGSLRLSCAASGSTFDRNVMGWYRQAPGKERELVAAISRVSSTNYSDSVKGRFTISRDNAKNTVYLQMNSLKPEDTAVYYCAADRAGSIMNYWGQGTQVTVSS	low polyreactivity
QVQLVESGGGVVQAGGSLRLSCSASGSTFLGYVMGWYRQAPGKEREFVAVISRSGGDTYYADSVKGRFTISRDNAKNTVYLQMNSLKPEDTAVFYCNTRVRASSVDYDEGDYWGQGTQVTVSS	low polyreactivity
QVQLVESGGGLVQAGGSLRLSCAASGYTLSVNAMGWYRQAPGKERELVATIDFGGGSTYYADSVKGRFTISRDNAKNTVYLKMNSLKPEDTAVYYCNTEWTSLSKSSLGGRYDHWGQGTQVTVSS	low polyreactivity
QVQLVESGGGLVQAGGSLRLICAASGRIFGYYVMGWSRQSPGKERQLVAAIRSSADSTYYADSVKGRFTISRDNAKNTVYLQMNSLKPEDTAVYYCAAQSPAYYTKSYWGQGTQVTVSS	low polyreactivity
QVQLVESVGGLVQAGGSLRLSCAASGRTFVRYTMGWYRQAPGKERELVAAITWSGGSTYYADSVKGRFTISRDNATNTVYLQMNSLKPEDTAVYDCAARTYFGTQLQRYYWGQGTQVTVSS	high polyreactivity
QVHLVDSCGALVQAGGSLSIRCAASGLTIYRYAKGWNRQEPRKETEVVAAISSADRTYYADSVKGRFTISRDNAKNTVYLQMNSLKPEDTAVYYCAARANYFGWTKSYYYWGQGTQVTVSS	high polyreactivity
QDQLVESRGGLVQAGGSLRLICDASGFTFDSNAMVWYRQEPGKERQLVAAISARGTSTYYADSVKGRFTISRDNAKNTVYLQMNSLKPEDTAVYDCNTGESSWYLPEEDYWGQGTQVTLSS	low polyreactivity
QVQLVESGGFLVQAGGSLRLTCAASGSIIENNAMGWSRQAPRKERELVDAISSDDTTNYADSVKGRFTISRDNAKNTVYLLMNRLLPVDTAVYYCNVDSGPEDKTVTYDYWGQGTQVTVSS	low polyreactivity
QVQLVESGGGLVQEGGSLRLSCAASGRLFGTYTMGWYRQAPGKERELVAAISWSGGNTYYADSVKGRFTISRDNAKNTVYLQMNSLKPEDTAVYYCNALYYRPPKWYGYWGQGTQVTVSS	high polyreactivity
QVQLVESGGGLVQAGGSLRLSCAASGRIFWGYAMGWYRQAPGKERELVARITSGGDTYYADSVKGRFTISRDNAKNTVYLQMNSLKPEDTAVYYCNADVGTEWDNYPEVDYWGQGTQVTVSS	low polyreactivity
QVQLVESGVGLVQAGGSLRLSCAASGSTFDYYVMGWYRQAPGKVRELVAAISETGDDTYYADSVKGRFTLSRDNAKNTVYLQINRLNPEDTAVYYCAADSYFYSGFVRRFYFWGQGSQVTVSS	high polyreactivity
QVQLVETGGGLVHAGGSLRLSCAASGSIFQGHAMGWYRQAPGKERELVAAISRNGGRTYYADSVKGRFTISRDNAKNTVYLQMNSLKPEDTAVYYCAAYHNVEYDYWGQGTQVTVSS	high polyreactivity
QVQLVESGGGLVQAGGSLRLSCAASGSTFIYYTMGWYRQAPGKERELVAAIPSSGGSTYYADSVKGRFTISRDNAKNTVYLQMNSLKPEDTAVYYCADDGTYIKFAKLYRRYDYWGQGTQVTVSS	low polyreactivity
QVQLVESGGGLVQAGGSLRLSCAASGSTLGYYTMGWYIQAPGKERELVAAITRSGGSTYYADSVKGRFTISRDNAKNTVYLQMNSLKPEDTAVYYCAARSYQGTSSGRVTRRYDYWGQGTQVTVSS	high polyreactivity
QVQLEESGGGLVQAGGSHRLICAASGSTFEYYAMGWYRQAPGKERELVAAINGIGGSTTYADSVKGRFTISRDTAKYTVYLQMNSLKPEDTAVYYCNADVARSKSQASAYDYWGQGTQVNVSS	low polyreactivity
QVQLVESGGGLVQAGGSLRLSCAASGFIFVGNDMGWYRQAPGKERELVAAISSGGSTYYADSVKGRFTISRDNAKNTVYLQMNSLKPEDTAVYYCAATYVYYLYGYWGQGTQVTVSS	low polyreactivity
QVQLVESGGGLVQAGGCLRLSCAASGYIFRVYDMGWYRQAPGKERELVAAISGSGGRTYYADSVKGRFTISRDNAKNTVYLQMISLKPEDTAVYDCSAYRVSEYDYWGQGTQVTVSS	high polyreactivity
QVQLVESGGGLVQAGGSLRLSCAASGSIVGTYAMGWYRQAPGKERELVAAITWRGGNTYYADSVKGRFTISRDNAKNTVYLQMNSLKPEDTAVYYCAARGYKSSRRYYYWGQGTQVTVSS	high polyreactivity
QVQLVESGGGLVQAGGSLRLSCDASGSTFRSYAMGWYRQAHGKERELVASISGRGGSTYYADSVKGRFTISRDNAKNTVYLQMNSLKPEDTAVYYCAKRYRVSYYPYADPYGYWGQGTQVTVSS	low polyreactivity
QVQLVESGGGLVQAGGSLRLSCAASGSIFWYYAMGWYRQAPGKERELVAAISASGSSTYYADSVKGRFTISRDNAKNTVYLQMNSLKPEDTAVYDCAATYSLYNDWLYHYFPEEYDYWGQGTQVTVSS	low polyreactivity
QVQLVESGGGLVQAGGSLRLSCAASGRILTSNAMGWYRQAPGKERELVAAISWSGGSTYYADSVKGRFTISRDNAKNTVYLQMNILKPEDTAVYYCAAPLYWVDDFESGWRYYYWGQGTQVTVSS	low polyreactivity
QVQLQESGGALVQAGGSLRLSCAASGTISDRAGMGWYRQAPAKNANVATIDRGTNTNYADSVKGRFTISRDNAKNTVYLQMNSLKPEDTAVYNCAADGRYYIYLDYWGQGTQVTVSS	low polyreactivity
FVQAGGSLRLSCAASGFIFGVYDMGWYRQAPGKERELVAAIDSVGSTYYADSVKGRFTISRDNAKNTVYLQMNSLNPEDTAVYYCAKDGSYQAYGYWGQGTQVTVSS	low polyreactivity

Reference: the nanobody polyreactivity screen of Harvey et al. (2022)
